Publication PMC11514447, “Eukaryotic initiation factor 4B is a multi-functional RNA binding protein that regulates histone mRNAs”

B1: His1-FL (structured_RNA)
RNA: UCCUUUGGCCAACUGCUUAGAAGCCCAACACAACCCAAAGGCUCUUUUCAGAGCCACCCA

Target: eIF4B (UniProt P23588 1-611)
Experiment: fluorescence polarization; 2 mM ATP, 2 mM Mg2+; 20 mM HEPES/KOH pH 7.5, 100 mM KCl, 1 mM TCEP, 2 mM ATP, 2 mM MgCl2, 40 nM FAM-RNA, 60 min, 25 C; Kd values only in figures (one-site fit, n=3)
Conditions: protein: recombinant

eIF4B, sequence (P23588 whole entry): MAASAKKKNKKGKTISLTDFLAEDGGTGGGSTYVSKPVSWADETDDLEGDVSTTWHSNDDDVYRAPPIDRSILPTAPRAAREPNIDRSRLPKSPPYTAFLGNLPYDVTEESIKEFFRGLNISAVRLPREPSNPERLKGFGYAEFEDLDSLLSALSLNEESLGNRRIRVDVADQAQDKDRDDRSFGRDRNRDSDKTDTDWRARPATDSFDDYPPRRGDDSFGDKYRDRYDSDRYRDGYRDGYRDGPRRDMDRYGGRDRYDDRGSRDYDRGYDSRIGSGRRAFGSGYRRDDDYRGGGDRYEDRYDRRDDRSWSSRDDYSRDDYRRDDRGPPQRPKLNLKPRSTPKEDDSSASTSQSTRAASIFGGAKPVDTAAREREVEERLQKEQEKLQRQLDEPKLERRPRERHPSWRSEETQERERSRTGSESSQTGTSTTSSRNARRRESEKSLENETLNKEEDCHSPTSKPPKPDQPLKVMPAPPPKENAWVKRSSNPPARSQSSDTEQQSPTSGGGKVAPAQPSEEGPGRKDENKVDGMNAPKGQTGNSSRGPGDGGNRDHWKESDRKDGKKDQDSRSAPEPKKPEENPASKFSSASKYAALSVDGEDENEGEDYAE

Row | Binder | binding result | binding result (3' hairpin, 6-bp stem, 4-nt loop)
1 | GCUGCACUCUUAUUUUCAUUUUCAACCAAA (ssRNA) [His4-ssRNA] | binds | –
2 | B1 | – | binds
3 | UCCUUUGGCCAACUGCUUAGAAGCCCAACACAACCCAAA (ssRNA) [His1-ssRNA] | binds | –
4 | GGCUGGCGUGAGGGUCUCCCUUGAUCUGAGAAUG (ssRNA) [CDK4-5'UTR] | binds | –
